Laboratory results: publication PMC6327041 (2019)
Where no end group is shown, it is not given here. [ ]: non-standard residue; d: D form. pT = C[C@@H](OP(=O)(O)O)[C@H](N)C(=O)O

B1: GST-PHD1 (S287-K347) of KDM5A (domain or fragment)
chain: SVNFVDLYVCMFCGRGNNEDKLLLCDGCDDSYHTFCLIPPLPDVPKGDWRCPKCVAEECSK

Experiments:
[1] = biological target: B1; assay: FP
[2] = biological target: B1; assay: FP; H3R2me2a (asymmetric dimethyl)
[3] = biological target: B1; assay: FP; H3R2me2s (symmetric dimethyl)
[4] = biological target: B1; assay: FP; H3R8me2a (asymmetric dimethyl)
[5] = biological target: B1; assay: FP; H3R8me2s (symmetric dimethyl)
[6] = biological target: B1; assay: FP; H3T6ph
[7] = biological target: H3 10mer peptide mutated at R2 (UniProt P68431 2-11); assay: FP; H3R2A

In the case of ARTKQTARKS (trimethyl-lysine at 9 (K9me3)) [H3K9me3 10mer peptide], the Kd [1] is reported as 740 nM.

ARTKQTARKS (also: methylated Arg2, degree of methylation not given here) [H3 10mer peptide methylated at R2] showed a Kd [2] of 5410 nM and a Kd [3] of 5310 nM.

ARTKQTARKS (also: methylated Arg8, degree of methylation not given here) [H3 10mer peptide methylated at R8] was tested, and the Kd [4] was 1840 nM and the Kd [5] was 2010 nM.

Work on ARTKQ[pT]ARKS [H3 10mer peptide phosphorylated at T6] yielded a Kd [6] of 72000 nM.

B1 showed a Kd [7] of 205000 nM.

In the case of ARTKQTARKS [unmodified H3 10mer effector peptide (H3 Ala1-Ser10)], the Kd [1] is reported as 996 nM.

Binder ARTKQTARKS (acetyl-lysine at 9 (K9ac)) [H3K9ac 10mer peptide] has a Kd [1] of 1010 nM.
